Each block holds one binder with its values, some of them ahead of it. Starred links: 1 amine or outer side, 2 acyl side, 3 side chain; linkers in the order of their positions; H or OH if unused. Positions of bridges follow the written chain, without caps; N, C: chain ends. Non-standard residues stand in square brackets, D forms with d. Groups on a side chain read outwards from the residue. *: point of attachment. PEG12 = NCCOCCOCCOCCOCCOCCOCCOCCOCCOCCOCCOCCOCCC(=O)O; PEG11 = NCCOCCOCCOCCOCCOCCOCCOCCOCCOCCOCCOCCC(=O)O; C18 diacid = O=C(O)CCCCCCCCCCCCCCCCC(=O)*; Dip = N[C@H](C(=O)O)C(c1ccccc1)c1ccccc1; γGlu = O=C(O)[C@H](CCC(=O)[*:2])N[*:1]; Palmitoyl = CCCCCCCCCCCCCCCC(=O)*; β3hF = N[C@H](CC(=O)O)Cc1ccccc1; NMeK = CN[C@@H](CCCCN)C(=O)O; Isovaleryl = CC(C)CC(=O)*; Orn = NCCC[C@H](N)C(=O)O; Abu = CC[C@H](N)C(=O)O; Dap = NC[C@H](N)C(=O)O; AEEA = NCCOCCOCC(=O)O; Ahx = NCCCCCC(=O)O
Legend:
[1] = biological target: T1, ferroportin endogenously expressed on T47D cells (HTB 133, ATCC) (human, UniProt Q9NP59 1-571); assay: cell-based or functional assay
T1 sequence (looked up): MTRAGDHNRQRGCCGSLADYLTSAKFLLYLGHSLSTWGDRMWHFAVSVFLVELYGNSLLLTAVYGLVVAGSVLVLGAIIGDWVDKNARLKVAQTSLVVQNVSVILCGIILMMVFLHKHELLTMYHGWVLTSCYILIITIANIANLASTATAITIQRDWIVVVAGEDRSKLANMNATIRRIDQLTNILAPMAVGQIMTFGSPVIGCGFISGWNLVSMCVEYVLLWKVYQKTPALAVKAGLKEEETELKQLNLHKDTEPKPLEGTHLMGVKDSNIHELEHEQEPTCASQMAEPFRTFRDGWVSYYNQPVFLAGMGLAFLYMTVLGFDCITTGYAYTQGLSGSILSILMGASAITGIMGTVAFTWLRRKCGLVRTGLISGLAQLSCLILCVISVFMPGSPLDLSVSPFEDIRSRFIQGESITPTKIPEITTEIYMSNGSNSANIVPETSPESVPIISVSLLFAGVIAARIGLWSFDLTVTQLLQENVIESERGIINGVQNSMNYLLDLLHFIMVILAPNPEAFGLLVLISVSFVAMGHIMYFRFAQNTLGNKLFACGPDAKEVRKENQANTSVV

[2] = biological target: T2, human ferroportin (SLC40A1) fused in frame with GFP, stably expressed in HEK293 cells (human, UniProt Q9NP59 1-571); assay: cell-based or functional assay
T2 sequence (looked up): T1 sequence (looked up)

- T47D MSA IC50 [1]: 35 nM
Binder: Isovaleryl-[Orn]TH[Dip]PAID[β3hF][Lys(Ahx_Palm)]R-NH2 (lactam (positions not given here); not fully specified (bridges)) [Isovaleric Acid-Orn-T-H-[Dpa]-P-A-I-D-[bhPhe]-[Lys(Ahx_Palm)]-R-NH2]

- T47D MSA IC50 [1]: 54.3 nM
Binder: XETHXPXX (N-term Cyclohexanoic_Acid; Dpa4; Lys(Ahx_Palm)6; C-term N_Butyl_Phe) [Cyclohexanoic_Acid-E-T-H-[Dpa]-P-[Lys(Ahx_Palm)]-N_Butyl_Phe]

- T47D MSA IC50 [1]: 10.6 nM
Binder: Isovaleryl-ETH[Dip]PAIKK([Ahx-Palmitoyl])-NH2 (lactam 1-8 (inferred)) [Isovaleric Acid-E-T-H-[Dpa]-P-A-I-K-[Lys(Ahx_Palm)]-NH2]

- T47D MSA IC50 [1]: 388 nM
Binder: Isovaleryl-ETH[Dip]P[Abu]IK([PEG12-C18 diacid])[β3hF][dK]C-NH2 (thioether 6-11) [Isovaleric Acid-E-T-H-[Dpa]-P-Abu-I-[Lys(PEG12_C18_Diacid)]-[bhPhe]-[(D)Lys]-[Cys]-NH2]

- T47D MSA IC50 [1]: 144 nM
Binder: Isovaleryl-ETH[Dip]PKK([Ahx-Palmitoyl])-NH2 (lactam 1-6 (inferred)) [Isovaleric Acid-E-T-H-[Dpa]-P-K-[Lys(Ahx_Palm)]-NH2]

- T47D MSA IC50 [1]: 10.1 nM
Binder: XETHXPXX (N-term Butyric_Acid; Dpa4; Lys(Ahx_Palm)6; C-term N_Butyl_Phe) [Butyric_Acid-E-T-H-[Dpa]-P-[Lys(Ahx_Palm)]-N_Butyl_Phe]

- T47D MSA IC50 [1]: 12.7 nM
Binder: XETHXPXX (N-term Isovaleric Acid; Dpa4; Lys(Ahx_Palm)6; C-term N_Pentyl_Phe) [Isovaleric Acid-E-T-H-[Dpa]-P-[Lys(Ahx_Palm)]-N_Pentyl_Phe]

- T47D MSA IC50 [1]: 143 nM
B1: Isovaleric Acid-E-T-H-[Dpa]-P-A-I-[Lys(1Peg2_1Peg2_Ahx_C18_Diacid)]-[bhPhe]-NH2 (peptide)
peptide: Isovaleryl-ETH[Dip]PAIK([AEEA-AEEA-Ahx-C18 diacid])[β3hF]-NH2
SMILES: CC[C@H](C)[C@H](NC(=O)[C@H](C)NC(=O)[C@@H]1CCCN1C(=O)[C@@H](NC(=O)[C@H](Cc1c[nH]cn1)NC(=O)[C@@H](NC(=O)[C@H](CCC(=O)O)NC(=O)CC(C)C)[C@@H](C)O)C(c1ccccc1)c1ccccc1)C(=O)N[C@@H](CCCCNC(=O)COCCOCCNC(=O)COCCOCCNC(=O)CCCCCNC(=O)CCCCCCCCCCCCCCCCC(=O)O)C(=O)N[C@H](CC(N)=O)Cc1ccccc1

- T47D MSA IC50 [1]: 4.07 nM
B2: Isovaleric Acid-K-T-H-[Dpa]-P-A-I-E-[bhPhe]-NMe[Lys(Ahx_Palm)]-NH2 (peptide)
peptide: Isovaleryl-KTH[Dip]PAIE[β3hF][NMeK]([Ahx-Palmitoyl])-NH2
modifications: lactam 1-8
SMILES: CCCCCCCCCCCCCCCC(=O)NCCCCCC(=O)NCCCC[C@@H](C(N)=O)N(C)C(=O)C[C@H](Cc1ccccc1)NC(=O)[C@@H]1CCC(=O)NCCCC[C@H](NC(=O)CC(C)C)C(=O)N[C@@H]([C@@H](C)O)C(=O)N[C@@H](Cc2c[nH]cn2)C(=O)N[C@@H](C(c2ccccc2)c2ccccc2)C(=O)N2CCC[C@H]2C(=O)N[C@@H](C)C(=O)N[C@@H]([C@@H](C)CC)C(=O)N1

- FPN EC50 [2]: 429 nM
- T47D MSA IC50 [1]: 65.8 nM
Binder: Isovaleryl-ETH[Dip]PAIK([AEEA-AEEA-γGlu-C18 diacid])[β3hF][dK]-NH2 [Isovaleric Acid-E-T-H-[Dpa]-P-A-I-[Lys(1PEG2_1PEG2_IsoGlu_C18_Diacid)]-[bhPhe]-[(D)Lys]-NH2]

- T47D MSA IC50 [1]: 5.53 nM
B3: Isovaleric Acid-Dab-T-H-[Dpa]-P-A-I-E-[bhPhe]-[Lys(Ahx_Palm)]-R-NH2 (peptide)
peptide: XXTHXPAIEXXR
modifications: N-term Isovaleric Acid; Dab1; Dpa4; bhPhe9; Lys(Ahx_Palm)10; C-term NH2; cyclized Dab-E (lactam)

- FPN EC50 [2]: 44.5 nM
- T47D MSA IC50 [1]: 1.88 nM
Binder: Isovaleryl-ETH[Dip]PAIK([PEG11-Palmitoyl])[β3hF]-NH2 [Isovaleric Acid-E-T-H-[Dpa]-P-A-I-[Lys(2PEG11_Palm)]-[bhPhe]-NH2]

- T47D MSA IC50 [1]: 3.53 nM
B4: Isovaleric Acid-K-T-H-[Dpa]-P-A-I-E-[bhPhe]-[Lys(Ahx_Palm)]-NH2 (peptide)
peptide: Isovaleryl-KTH[Dip]PAIE[β3hF]K([Ahx-Palmitoyl])-NH2
modifications: lactam 1-8
SMILES: CCCCCCCCCCCCCCCC(=O)NCCCCCC(=O)NCCCC[C@H](NC(=O)C[C@H](Cc1ccccc1)NC(=O)[C@@H]1CCC(=O)NCCCC[C@H](NC(=O)CC(C)C)C(=O)N[C@@H]([C@@H](C)O)C(=O)N[C@@H](Cc2c[nH]cn2)C(=O)N[C@@H](C(c2ccccc2)c2ccccc2)C(=O)N2CCC[C@H]2C(=O)N[C@@H](C)C(=O)N[C@@H]([C@@H](C)CC)C(=O)N1)C(N)=O

- T47D MSA IC50 [1]: 996 nM
B5: Isovaleric Acid-K-T-H-[Dpa]-P-I-E-[bhPhe]-[Lys(Ahx_Palm)]-NH2 (peptide)
peptide: Isovaleryl-KTH[Dip]PIE[β3hF]K([Ahx-Palmitoyl])-NH2
modifications: lactam 1-7
SMILES: CCCCCCCCCCCCCCCC(=O)NCCCCCC(=O)NCCCC[C@H](NC(=O)C[C@H](Cc1ccccc1)NC(=O)[C@@H]1CCC(=O)NCCCC[C@H](NC(=O)CC(C)C)C(=O)N[C@@H]([C@@H](C)O)C(=O)N[C@@H](Cc2c[nH]cn2)C(=O)N[C@@H](C(c2ccccc2)c2ccccc2)C(=O)N2CCC[C@H]2C(=O)N[C@@H]([C@@H](C)CC)C(=O)N1)C(N)=O

- T47D MSA IC50 [1]: 733 nM
B6: Isovaleric Acid-Dap-T-H-[Dpa]-P-A-I-D-[bhPhe]-[Lys(Ahx_Palm)]-R-NH2 (peptide)
peptide: Isovaleryl-[Dap]TH[Dip]PAID[β3hF]K([Ahx-Palmitoyl])R-NH2
modifications: lactam 1-8
SMILES: CCCCCCCCCCCCCCCC(=O)NCCCCCC(=O)NCCCC[C@H](NC(=O)C[C@H](Cc1ccccc1)NC(=O)[C@@H]1CC(=O)NC[C@H](NC(=O)CC(C)C)C(=O)N[C@@H]([C@@H](C)O)C(=O)N[C@@H](Cc2c[nH]cn2)C(=O)N[C@@H](C(c2ccccc2)c2ccccc2)C(=O)N2CCC[C@H]2C(=O)N[C@@H](C)C(=O)N[C@@H]([C@@H](C)CC)C(=O)N1)C(=O)N[C@@H](CCCNC(=N)N)C(N)=O

Source: patent US20240066131A1 (Protagonist Therapeutics, Inc., priority 2020, published 2024)
